Measurements: patent US20240293316

Columns and labels:
[1] = tested on: NorMMPD (norbornene monomer functionalized with the D-MMP peptide)
[2] = tested on: NorMMPR (norbornene monomer functionalized with the random peptide R-MMP)
[3] = tested on: NorMMPL (norbornene monomer functionalized with the L-MMP peptide)

Chain of MMP-9 (chain, as listed by the source): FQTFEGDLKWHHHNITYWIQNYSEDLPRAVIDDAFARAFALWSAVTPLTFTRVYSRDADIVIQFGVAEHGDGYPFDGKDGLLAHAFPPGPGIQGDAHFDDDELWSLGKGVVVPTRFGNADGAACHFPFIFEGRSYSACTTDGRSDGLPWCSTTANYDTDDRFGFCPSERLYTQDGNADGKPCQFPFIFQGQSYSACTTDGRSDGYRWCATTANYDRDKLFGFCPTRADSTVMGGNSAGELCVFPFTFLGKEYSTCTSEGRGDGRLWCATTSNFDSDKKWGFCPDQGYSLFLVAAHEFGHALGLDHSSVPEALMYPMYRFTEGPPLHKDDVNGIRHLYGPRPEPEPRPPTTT

MMP-9
MMP-9 cleavage assay (HPLC after 24 hours of incubation with MMP-9 at 37° C.; 0.5 µM MMP-9 : 500 µM NorMMP) [1]: remained intact | MMP-9 cleavage assay (HPLC after 24 hours of incubation with MMP-9 at 37° C.; 0.5 µM MMP-9 : 500 µM NorMMP) [2]: remained intact | MMP-9 cleavage assay (HPLC after 24 hours of incubation with MMP-9 at 37° C.; 0.5 µM MMP-9 : 500 µM NorMMP) [3]: NorMMPL was completely cleaved
